Measurements taken from publication PMC9040152.
pKd: −log10 of the molar value.

Columns and labels:
[1] = target: E5-tagged Fcγ receptor IIIa, V158 variant (human); experiment: SPR
[2] = target: E5-tagged FcγRIIIa V158, produced in CHO cells (human); experiment: SPR
E5-tagged FcγRIIIa V158, produced in CHO cells (human), sequence (P08637 17-208): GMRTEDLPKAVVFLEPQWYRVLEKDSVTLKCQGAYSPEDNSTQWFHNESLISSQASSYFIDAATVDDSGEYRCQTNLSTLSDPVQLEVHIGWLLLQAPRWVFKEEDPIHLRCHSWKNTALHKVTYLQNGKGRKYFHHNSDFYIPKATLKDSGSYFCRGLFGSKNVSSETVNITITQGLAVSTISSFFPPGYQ

E5-tagged Fcγ receptor IIIa, V158 variant (human), sequence (P08637 17-208, change not shown): as the sequence (P08637 17-208) above

| Substance | fold increase in affinity upon digalactosylation, relative to TZM [1] [fold] | pKd [2] |
| --- | --- | --- |
| Trastuzumab co-expressed with β1,4-galactosyltransferase 1 (TZM GT) (antibody) | 2 |  |
| Trastuzumab co-expressed with β4GT1 and RMD, in vitro α2,6-sialylated (antibody) |  | 7.49 |
